Assay in all cases: two-hybrid; β-galactosidase activity in yeast strain AH109 with the Yeast β-galactosidase Assay Kit (Thermo Fisher Scientific); pGBKT7 bait and pGADT7 prey; three biological replicates
Test [1] deals with MnMADS1 (mulberry 'Jinqiang 63' (JQ63) used for vector construction; gene identified in Morus notabilis).
A further test has as its target pGBKT7-53.
Test [2] concerns the target MnMADS50 (mulberry 'Jinqiang 63' (JQ63) used for vector construction; gene identified in Morus notabilis).
Test [3] deals with MnMADS33 (mulberry 'Jinqiang 63' (JQ63) used for vector construction; gene identified in Morus notabilis).

The substance MnMADS33 (natural protein) came in with a β-galactosidase activity in test [1] of 17.5 units. Turning to pGADT7-T, the β-galactosidase activity with pGBKT7-53 amounted to 15.7 units. In the case of MnMADS50 (natural protein), in test [1], the β-galactosidase activity came out at 15.3 units. For the substance MnMADS1 (natural protein), the β-galactosidase activity was determined as 16.3 units in test [2] and 15.1 units in test [3].

The values above are taken from publication PMC5895635.
